The target in assay [1] is T1, human CLIC1 protein located on the plasma membrane (tmCLIC1) (human, UniProt O00299 2-241). Description: not specified (same experimental models as tmCLIC1omab).
Assay [2] deals with T2, QVELFV sequence (human).
T2 peptide: QVELFV
Description: PEPperMAP linear peptide microarray. As to the method:
(§1) PEPperMAP epitope Mapping® of the tmCLIC1omab antibody was conducted against the peptide […] (amino acids 3-24 of the CLIC1 protein) translated to linear peptides consisting of 5, 10 and 15 amino acids with peptide-peptide overlaps of 4, 9 and 14 amino acids for high-resolution epitope data. The resulting CLIC1 peptide microarrays were incubated with the antibody samples at concentrations of 1 μg/ml, 10 μg/ml, 100 μg/ml and 250 μg/ml in incubation buffer, followed by staining with secondary and control antibodies and reading with a LI-COR Odyssey Imaging System. The intensity of the points and peptide annotation were quantified with the PepSlide® Analyzer.
(§2) Conversely, incubation of a second copy of the microarray of CLIC1 peptides with the tmCLIC1omab monoclonal antibody gave an antibody response with the epitopes formed by peptides adjacent to the VELF consensus motif (SEQ ID NO:22), with all peptide lengths having low or moderate signal-to-noise ratios. Additional very weak interactions of the antibody with the HA control peptides were observed, perhaps because of a cross-reaction or a less specific antibody bond. With the peptides consisting of 10 and […], longer […] (10 aa) (SEQ ID NO:23) and […] (15 aa) (SEQ ID NO:24) consensus motifs were observed, the underlined letters of which form part of linker […] (SEQ ID NO:25) specific to the microarray.

Assay [3] has as its target T3, QVELF sequence (human).
T3 peptide: QVELF
Put plainly: PEPperMAP linear peptide microarray. As for the experimental part: as §1, §2

The target of assay [4] is CLIC1 protein of microglial cells (BV-2), transmembrane form after stimulation (mouse, UniProt Q9Z1Q5 2-241). Put plainly: cell-based or functional assay.
Assay [5] addresses T1, human CLIC1 protein located on the …. Description: cell-based or functional assay.

B1: class IgG2b antibody containing the heavy chain variable region SEQ ID NO:15 and the light chain variable region SEQ ID NO:16 (antibody, V domains shown)
VH: EVKLVESGGGLVKPGGSLKLSCAASGFTFSGYVMSWVRQTPDKRLEWVASISSGGSSYYSDRVKGRLTISRDNARNILFLQMSSLRSEDSAMYYCANGYNYAMDYWGQGTSVTVSS
VL: DIVMTQSHKFMSISVGDRVSITCKASQDVGTAVAWYQQKPGQSPQLLIYWASTWHTGVPDRFTGSGSGTDFTLTITNVQSEDLADYFCQQYKLFPLTFGAGTRLELK
notes: IgG2b
Take B1: in assay [1], the binding result was “binds”.

B2: tmCLIC1omab (antibody, IgG1, V domains shown)
VH: EVMLVESGGGLVKPGGSLKLSCAASGFAFSNYAMSWIRQIPEKRLEWVATISTGGSSTFYPDSVKGRFTISRDNAKNTLYLQMSSLRSEDTAMYYCTRHAYEAWFAYWGQGTLVTVSA
VL: QIVLTQSPALMSASPGEKVTMTCSASSSVSYMYWYQQRPRSSPKPWIYLTSTLASGVPTRFSGSGSGTSYSLTISSMEAEDAATYYCQQWNSHPLTFGSGTKLEIK
notes: IgG1 class monoclonal antibody from mouse hybridoma; also called tmCLIComab; anti-tmCLIC1 monoclonal antibody
In the case of B2, the binding result in assay [2] and in assay [3] was “binds” each time. Also, the “membrane current, patch-clamp in whole-cell configuration on BV2 microglial cells after β-amyloid” value in assay [4] was approximately 4 fold. Moreover, the “ROS production over time in human glioblastoma cells (fluorescence)” value in assay [5] is approximately 5 fold.

The values above are taken from patent US20240002499A1 (UNIVERSITA DEGLI STUDI DI MILANO, published 2024).
